Assay results from patent publication US20050272090, “Nucleic acid binding of multi-zinc finger transcription factors” (published 2005).

T1: SIP1 full length in cells (Mus musculus) (UniProt Q9R0G7)
T1 sequence: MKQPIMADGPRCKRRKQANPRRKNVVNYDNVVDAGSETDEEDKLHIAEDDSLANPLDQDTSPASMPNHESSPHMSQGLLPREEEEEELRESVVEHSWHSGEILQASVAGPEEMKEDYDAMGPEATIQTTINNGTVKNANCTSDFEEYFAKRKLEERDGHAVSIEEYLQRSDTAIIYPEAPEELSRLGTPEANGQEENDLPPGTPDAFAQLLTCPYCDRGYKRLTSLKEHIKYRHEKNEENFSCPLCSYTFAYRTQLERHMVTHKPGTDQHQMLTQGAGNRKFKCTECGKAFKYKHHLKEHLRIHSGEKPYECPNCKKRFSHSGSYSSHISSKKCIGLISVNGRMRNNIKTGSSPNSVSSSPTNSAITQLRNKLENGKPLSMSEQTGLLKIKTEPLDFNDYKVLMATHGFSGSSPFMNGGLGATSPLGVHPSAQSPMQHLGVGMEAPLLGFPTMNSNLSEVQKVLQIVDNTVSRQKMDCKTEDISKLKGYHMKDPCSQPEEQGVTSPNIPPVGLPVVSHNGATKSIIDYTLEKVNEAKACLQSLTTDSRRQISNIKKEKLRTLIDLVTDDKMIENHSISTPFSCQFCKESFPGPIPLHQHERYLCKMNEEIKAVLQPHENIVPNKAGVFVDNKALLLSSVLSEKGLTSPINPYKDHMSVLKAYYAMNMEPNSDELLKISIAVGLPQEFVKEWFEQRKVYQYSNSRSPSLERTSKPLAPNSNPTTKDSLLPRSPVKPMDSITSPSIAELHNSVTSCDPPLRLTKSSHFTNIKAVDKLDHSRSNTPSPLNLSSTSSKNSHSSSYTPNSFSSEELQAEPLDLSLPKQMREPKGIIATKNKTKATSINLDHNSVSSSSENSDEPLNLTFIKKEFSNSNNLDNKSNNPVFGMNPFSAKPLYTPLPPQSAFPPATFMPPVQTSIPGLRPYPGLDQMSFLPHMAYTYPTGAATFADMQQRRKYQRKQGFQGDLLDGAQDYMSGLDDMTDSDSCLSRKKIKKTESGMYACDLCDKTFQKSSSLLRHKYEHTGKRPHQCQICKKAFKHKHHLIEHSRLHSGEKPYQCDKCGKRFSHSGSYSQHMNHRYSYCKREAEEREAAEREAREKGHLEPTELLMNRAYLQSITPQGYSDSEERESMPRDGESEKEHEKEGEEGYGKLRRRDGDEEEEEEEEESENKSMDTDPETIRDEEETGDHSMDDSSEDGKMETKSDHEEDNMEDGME

T2: SIP1 full length (SIP1FS) (Mus musculus, UniProt Q9R0G7 Q9R0G7:1-1215)
T2 sequence: T1 sequence

B1: Xbra-WT (dsDNA)
DNA 1: ATCCAGGCCACCTAAAATATAGAATGATAAAGTGACCAGGTGTCAGTTCT
DNA 2: AGAACTGACACCTGGTCACTTTATCATTCTATATTTTAGGTGGCCTGGAT

Experiments:
[1] = biological target: T1, SIP1 full length in cells (Mus musculus); test: cell_activity; details: luciferase reporter in NMe, MDCK, MCF7/AZ
[2] = biological target: T2, SIP1 full length (SIP1FS); test: EMSA; affinity relative to SIP1CZF, estimated from expression levels; details: tags: N-terminal Myc6 (pCS3), COS1 cell extract; label: 32P
Method: The Xbra-WT oligonucleotide covers the region from −344 to −294 of the Xbra2 promoter (16). The region between −412 to −352 of the α4-integrin promoter is present within the α4I-WT oligonucleotide (26). The Ecad-WT probe contains the region between −86 to −17 of the human Ecad promoter (2). Double-stranded oligonucleotides were labeled with [³²P]-γ-ATP and T4 polynucleotide kinase (New England Biolabs). Total cell extracts were prepared from COS1 cells (25) transfected with different pCS3 vectors allowing synthesis of full length SIP1, full length δEF1, and different mutant forms of SIP1 (25), or co-production of equal amounts of Myc-tagged SP1 and FLAG-tagged SIP1. GST-SIP1 fusion proteins were purified from E. coli extract using the GST purification module (Pharmacia), and tested in gel retardation. The DNA binding assay (20 μl) was performed at 25° C., with 1 μg of COS1 total cell protein, 1 μg of poly dI-dC, 10 pg of ³²P-labeled double-stranded oligonucleotide (approx. 10⁴ Cerenkov counts) in the δEF1 binding buffer described previously (30). For supershift experiments, the extracts were incubated with anti-Myc (Santa Cruz) or anti-FLAG (Kodak) antibodies. For competition, an excess of unlabeled double-stranded oligonucleotides was added together with the labeled probe. […]

Row | Molecule | activity (% decrease of promoter activity) [1] | binding signal [2] [fold]
1 | E-cadherin promoter reporter | 80 | 
2 | B1 |  | ≥ 50
